In US20220041665A1, “POLYNUCLEOTIDE AND USES THEREOF” (Helsingin yliopisto, priority 2019, published 2022):

How the values were obtained:
Assay type in all cases: cell-based, human
[1] = tested on: endogenous target proteins tagged with miniIAA7-mEGFP; assay: FACS of mean GFP intensity in cells with endogenously miniIAA7-mEGFP-tagged targets and auxin perceptive proteins
Procedure: (§1) For FACS analysis, cells were seeded at 1:5 (for A431) or 1:3 (for A549) into 6-well plate in medium without selection on day 0. On day 1, medium was changed to 2 ml fresh medium without (for 0 h and 1 h IAA samples) or with (for 16 h IAA samples) 0.5 mM IAA. On day 2, the 1 h samples were supplemented with 0.5 ml medium containing 2.5 mM IAA (final 0.5 mM) and incubated for 1 h at 37° C. After treatment, cells were detached with 0.5 ml trypsin at 37° C. for 5-8 min (A549) or 8-12 min (A431), put on ice, and transferred to 1.5 ml Eppendorf tubes containing 0.5 ml serum-free CO2 independent medium (Gibco). The cell suspensions were centrifuged at 4° C., resuspended in 0.3 ml ice-cold serum-free FluoroBrite DMEM (Gibco) and stored on ice prior to FACS analysis. FACS analysis was performed on a BD Influx cell sorter (BD Biosciences-US) with 100 μm nozzle at 4-8° C. using BD FACS Sortware. Cells were gated with SSC, FSC and trigger pulse width for singlets and 100 000 cells were analyzed for each sample. GFP was excited with 488 nm laser and detected with 530/40 detector; mCherry was excited with 561 nm lasers and detected with 615/20 detector. Data was analyzed with BD FACS Sortware. Background subtracted mean fluorescence intensity was used for analysis.
Dynein heavy chain (DHC1) and epidermal growth factor receptor (EGFR) were chosen as the first targets. DHC1 is an essential protein that could not be rapidly depleted by using the OsTIR1-miniAID system in a previous study (Natsume et al., 2016, Cell Rep. 15, 210-218). EGFR is a transmembrane receptor with a canonical function in EGF uptake that can be acutely assessed after protein depletion. Endogenous target loci were tagged homozygously in human cells with miniIAA7-mEGFP through Cas9-mediated homology-directed repair (FIG. 3A). DHC1 was tagged homozygously but it was only possible to tag EGFR heterozygously in A431 cells, likely due to its high copy numbers in this cell type (data not shown). […]
Then the overall performance of the AtAFB2-miniIAA7 system in depleting different endogenous proteins was evaluated. […]

[2] = tested on: A549 cells with tagged EGFR; assay: EGF uptake in A549 cells with tagged EGFR; settings: EGFR-OsTIR1 cells
Procedure: A549 cells were seeded at 0.4×10^5 cells per 4-well for 3 days. Medium was changed to fresh medium with or without 0.5 mM IAA for 1 h. Cells were washed twice with ice-cold serum free medium with 1% BSA and 0.2 ml of 2 μg/ml Alexa Fluor™ 647 EGF complex (ThermoFisher, E35351) in serum free medium with 1% BSA was added. Cells were further incubated at 37° C. for 20 min before harvesting with trypsin. Samples were kept on ice before FACS analysis. Alexa Fluor™ 647 was excited with 640 nm laser and detected with 720/40 detector, analysing 20 000 cells per sample. Negative control samples were cells incubated in medium without EGF complex. Background subtracted mean fluorescence intensity was used for analysis.

[3] = tested on: seipin-mEGFP; assay: FACS screen of auxin perceptive proteins and degrons (mean GFP intensity) in A431 cell pools
Procedure: To search for an improved AID system to solve the issue, a pipeline was first established in human A431 cells to screen AID components (FIG. 2A). Various auxin perceptive proteins and degrons were selected for screening. Several TIR1 and AFB2 proteins from different plant species were tested, as well as degrons derived from AtIAA17 (SEQ ID NO: 3), these including amino acid (aa.) 65-132 (miniAID), aa. 62-109, aa. 71-114. All these degrons were included in the screen. […] These high affinity fragments were tested, assuming higher affinity might translate into more efficient inducible degradation. Degrons with KR dipeptide deletions were tested to see if they would have an effect on enhancing IAA binding affinity, IAA-inducible depletion or as part of a nuclear localization signal. PB1 domain of the AUX/IAA proteins has not been implicated in auxin-inducible degradation, so several other degrons with PB1 domain sequences homologous to miniAID were also tested.
A431 cell pools were generated to stably express different combinations of auxin perceptive protein and degron-fused seipin. Cells were cotransfected with a mixture of three vectors composed of pSH-EFIRES-P expressing an auxin perceptive protein, pSH-EFIRES-B expressing a degron-fused seipin, and pCas9-sgAAVS1 at ratio 3:3:4. Transfected cells were passaged 4-6 h after transfection at 1:5 into 6-well plates. On the next day, cells were selected with 1 μg/ml puromycin (Sigma, P8833) for 2 days, and with 5 μg/ml blasticidin (Gibco, A1113904) for 2 days, then with both antibiotics for at least 6 days before using for FACS analysis.
as §1

B1: OsTIR1: TIR1 derived from Oryza sativa, auxin perceptive protein (protein)
chain: MTYFPEEVVEHIFSFLPAQRDRNTVSLVCKVWYEIERLSRRGVFVGNCYAVRAGRVAARFPNVRALTVKGKPHFADFNLVPPDWGGYAGPWIEAAARGCHGLEELRMKRMVVSDESLELLARSFPRFRALVLISCEGFSTDGLAAVASHCKLLRELDLQENEVEDRGPRWLSCFPDSCTSLVSLNFACIKGEVNAGSLERLVSRSPNLRSLRLNRSVSVDTLAKILLRTPNLEDLGTGNLTDDFQTESYFKLTSALEKCKMLRSLSGFWDASPVCLSFIYPLCAQLTGLNLSYAPTLDASDLTKMISRCVKLQRLWVLDCISDKGLQVVASSCKDLQELRVFPSDFYVAGYSAVTEEGLVAVSLGCPKLNSLLYFCHQMTNAALVTVAKNCPNFTRFRLCILEPGKPDVVTSQPLDEGFGAIVRECKGLQRLSISGLLTDKVFMYIGKYAKQLEMLSIAFAGDSDKGMMHVMNGCKNLRKLEIRDSPFGDAALLGNFARYETMRSLWMSSCNVTLKGCQVLASKMPMLNVEVINERDGSNEMEENHGDLPKVEKLYVYRTTAGARDDAPNFVKIL
basal depletion at 0 h IAA ([1]; EGFR-OsTIR1 cells (A549), 0 h IAA): severe basal depletion | IAA-independent reduction of EGF uptake [2]: severe IAA-independent reduction

B2: AtAFB2: Arabidopsis thaliana AFB2, auxin perceptive F-box protein (SEQ ID NO: 96) (protein, listed as Arabidopsis thaliana)
chain: MNYFPDEVIEHVFDFVTSHKDRNAISLVCKSWYKIERYSRQKVFIGNCYAINPERLLRRFPCLKSLTLKGKPHFADFNLVPHEWGGFVLPWIEALARSRVGLEELRLKRMVVTDESLELLSRSFVNFKSLVLVSCEGFTTDGLASIAANCRHLRDLDLQENEIDDHRGQWLSCFPDTCTTLVTLNFACLEGETNLVALERLVARSPNLKSLKLNRAVPLDALARLMACAPQIVDLGVGSYENDPDSESYLKLMAVIKKCTSLRSLSGFLEAAPHCLSAFHPICHNLTSLNLSYAAEIHGSHLIKLIQHCKKLQRLWILDSIGDKGLEVVASTCKELQELRVFPSDLLGGGNTAVTEEGLVAISAGCPKLHSILYFCQQMTNAALVTVAKNCPNFIRFRLCILEPNKPDHVTSQPLDEGFGAIVKACKSLRRLSLSGLLTDQVFLYIGMYANQLEMLSIAFAGDTDKGMLYVLNGCKKMKKLEIRDSPFGDTALLADVSKYETMRSLWMSSCEVTLSGCKRLAEKAPWLNVEIINENDNNRMEENGHEGRQKVDKLYLYRTVVGTRMDAPPFVWIL
target protein level before IAA addition, compared to OsTIR1 ([3]; miniAID as degron, 0 h IAA): over 5 fold | basal depletion ([3]; miniAID as degron, 0 h IAA, compared to OsTIR1): minimal basal depletion | auxin-inducible depletion at 1 h IAA ([3]; miniAID as degron, 1 h IAA (0.5 mM)): inefficient | auxin-inducible depletion at 16 h IAA, compared to OsTIR1 ([3]; miniAID as degron, 16 h IAA (0.5 mM)): similar | auxin-inducible depletion at 1 h IAA and at longer times ([1]; DHC1 (A431) and EGFR (A549) tagged with miniIAA7-mEGFP): efficient auxin-inducible depletion | basal degradation at 0 h IAA ([1]; DHC1 (A431) and EGFR (A549) tagged with miniIAA7-mEGFP, 0 h IAA): minimal basal degradation

B3: miniIAA7: degron composed of AtIAA7 (SEQ ID NO: 1) amino acids 37-104 (protein, listed as Arabidopsis thaliana)
chain: GFSETVDLMLNLQSNKEGSVDLKNVSAVPKEKTTLKDPSKPPAKAQVVGWPPVRNYRKNMMTQQKTSS
reduction of GFP at 1 h IAA ([3]; AtAFB2 expressing cells, 1 h IAA): best reduction of GFP | efficiency of protein reduction compared to miniAID ([3]; in combination with AtAFB2, 1 h IAA): over 3 fold
